Numbering of substitutions follows the chain as printed. Numbers in names are those of the source.
Assays:
Assay type in all cases: biochemical, Escherichia coli
[1] = substrate: O=CC[C@H](O)C(=O)O; test: Malate semialdehyde dehydrogenase assay, Asd E241Q T136N; conditions: other: malate semialdehyde, reverse biosynthetic direction, pH 9, 0.25 mM NADP, 30° C.
Method: (§1) Enzymatic assay: Aspartate or malate semialdehyde dehydrogenase activities were assayed in the reverse biosynthetic direction by following the reduction of NADP during the oxidation of aspartate or malate semialdehyde to 4-phospho-(L)-aspartate or 4-phospho-(L)-malate, respectively (Roberts et al., 2003). (L)-aspartate semialdehyde (or (L)-malate semialdehyde)+NADP+Pi→4-phospho-(L)-aspartate (or 4-phospho-(L)-malate)+NADPH
(§2) The assay mixture contained 200 mM Hepes (pH 9), 50 mM K2HPO4, 0.25 mM NADP. Reactions were started by adding (L)-aspartate semialdehyde or (L)-malate semialdehyde. (L)-Aspartate semialdehyde was added in the form of L-aspartic acid β-semialdehyde hydrate trifluoroacetate (maintained at pH3 to prevent degradation) which is a suitable substrate for enzymatic tests of homoserine dehydrogenase and aspartate semialdehyde dehysrogenase (Roberts et al., 2003). Unstable malate semialdehyde was produced freshly prior to the enzymatic tests by the deprotection of the stable malate semialdehyde derivative 2-[(4S)-2,2-dimethyl-5-oxo-1,3-dioxolan-4-yl]acetaldehyde (DMODA). […]
Enzymatic assays were carried out in 96-well flat bottomed microtiter plates in a final volume of 250 μL at 30° C. The reactions were followed by the characteristic absorption of NADPH at 340 nm in a microplate reader (BioRad 680XR). […]

[2] = substrate: O=CC[C@H](O)C(=O)O; test: Malate semialdehyde dehydrogenase assay, Asd E241I; conditions: other: malate semialdehyde, reverse biosynthetic direction, pH 9, 0.25 mM NADP, 30° C.
Method: as §1, §2
(§3) Enzymatic assays were carried out in 96-well flat bottomed microtiter plates in a final volume of 250 μL at 30° C. The reactions were followed by the characteristic absorption of NADPH at 340 nm in a microplate reader (BioRad 680XR).

[3] = substrate: O=CC[C@H](O)C(=O)O; test: Malate semialdehyde dehydrogenase assay, Asd E241M; conditions: other: malate semialdehyde, reverse biosynthetic direction, pH 9, 0.25 mM NADP, 30° C.
Method: as §1, §2, §3

[4] = substrate: O=CC[C@H](O)C(=O)O; test: Malate semialdehyde dehydrogenase assay, Asd E241Q; conditions: other: malate semialdehyde, reverse biosynthetic direction, pH 9, 0.25 mM NADP, 30° C.
Method: as §1, §2, §3

[5] = substrate: O=CC[C@H](O)C(=O)O; test: Malate semialdehyde dehydrogenase assay, Asd E241H; conditions: other: malate semialdehyde, reverse biosynthetic direction, pH 9, 0.25 mM NADP, 30° C.
Method: as §1, §2, §3

[6] = substrate: O=CC[C@H](O)C(=O)O; test: Malate semialdehyde dehydrogenase assay, Asd E241C; conditions: other: malate semialdehyde, reverse biosynthetic direction, pH 9, 0.25 mM NADP, 30° C.
Method: as §1, §2, §3

[7] = substrate: O=CC[C@H](O)C(=O)O; test: Malate semialdehyde dehydrogenase assay, Asd E241A; conditions: other: malate semialdehyde, reverse biosynthetic direction, pH 9, 0.25 mM NADP, 30° C.
Method: as §1, §2, §3

[8] = substrate: O=CC[C@H](O)C(=O)O; test: Malate semialdehyde dehydrogenase assay, Asd E241G; conditions: other: malate semialdehyde, reverse biosynthetic direction, pH 9, 0.25 mM NADP, 30° C.
Method: as §1, §2, §3

[9] = substrate: N[C@@H](CC(=O)O)C(=O)O; test: Aspartate kinase assay (ADP production coupled to NADH oxidation), His-tagged wild-type LysC; conditions: other: His-tagged LysC, Eadie and Hofstee, pH 7.5, 30° C.
Method: (§4) Enzymatic assay: Aspartate or malate kinase activities were assayed by coupling ADP production in the kinase reactions to NADH oxidation in the presence of phosphoenolpyruvate, pyruvate kinase, and lactate dehydrogenase.
(§5) Aspartate (or Malate) Kinase aspartate (or malate)+ATP→4-phospho-(L)-aspartate (or 4-phospho-(L)-malate)+ADP
(§6) The assay mixture contained 50 mM Hepes (pH 7.5), 50 mM KCl, 5 mM MgCl2, 0.24 mM NADH, 0.96 mM ATP, 0.96 mM PEP, 9 μg/mL of lactate dehydrogenase (Sigma, L2500), 12.4 μg/mL pyruvate kinase (Sigma, P1506), and appropriate amounts of purified aspartate (malate) kinase. Reactions were started by adding 50 mM (L)-aspartate or (L)-malate. Enzymatic assays were carried out at 30° C. in 96-well flat bottomed microtiter plates in a final volume of 250 μL. The reactions were followed by the characteristic absorption of NADH at 340 nm in a microplate reader (BioRad 680XR).
Maximum activities for LysC and Hom3 on aspartate were 4.5 μmol/(min*mgprot) and 1.6 μmol/(min*mgprot), respectively. The Km value for aspartate was estimated with the method of Eadie and Hofstee by measuring initial reaction rates (v) at different substrate concentrations (c) and by extracting the slope of the v versus v/c plot. […]

[10] = substrate: O=C(O)C[C@H](O)C(=O)O; test: Malate kinase assay, LysC E119G; conditions: other: malate, pH 7.5, 30° C., average of at least two independent experiments
Method: as §4, §5, §6
(§7) Mutant enzymes were expressed, purified and tested for aspartate and malate kinase activity as described in Example 1.

[11] = substrate: O=C(O)C[C@H](O)C(=O)O; test: Malate kinase assay, LysC E119T; conditions: other: malate, pH 7.5, 30° C., average of at least two independent experiments
Method: as §4, §5, §6, §7

[12] = substrate: O=C(O)C[C@H](O)C(=O)O; test: Malate kinase assay, LysC E119V; conditions: other: malate, pH 7.5, 30° C., average of at least two independent experiments
Method: as §4, §5, §6, §7

[13] = substrate: O=C(O)C[C@H](O)C(=O)O; test: Malate kinase assay, LysC E119N; conditions: other: malate, pH 7.5, 30° C., average of at least two independent experiments
Method: as §4, §5, §6, §7

[14] = substrate: O=C(O)C[C@H](O)C(=O)O; test: Malate kinase assay, LysC E119P; conditions: other: malate, pH 7.5, 30° C., average of at least two independent experiments
Method: as §4, §5, §6, §7

[15] = substrate: O=C(O)C[C@H](O)C(=O)O; test: Malate kinase assay, LysC E119Q; conditions: other: malate, pH 7.5, 30° C., average of at least two independent experiments
Method: as §4, §5, §6, §7

[16] = substrate: O=C(O)C[C@H](O)C(=O)O; test: Malate kinase assay, LysC E119S; conditions: other: malate, pH 7.5, 30° C., average of at least two independent experiments
Method: as §4, §5, §6, §7

[17] = substrate: O=C(O)C[C@H](O)C(=O)O; test: Malate kinase assay, LysC E119C; conditions: other: malate, pH 7.5, 30° C., average of at least two independent experiments
Method: as §4, §5, §6, §7

B1: E. coli aspartate semialdehyde dehydrogenase Asd variant E241Q T136N, SEQ ID NO: 231 (Escherichia coli K-12; E241Q/T136N) (protein)
chain: MKNVGFIGWRGMVGSVLMQRMVEERDFDAIRPVFFSTSQLGQAAPSFGGTTGTLQDAFDLEALKALDIIVTCQGGDYTNEIYPKLRESGWQGYWIDAASSLRMKDDAIIILDPVNQDVITDGLNNGIRTFVGGNCNVSLMLMSLGGLFANDLVDWVSVATYQAASGGGARHMRELLTQMGHLYGHVADELATPSSAILDIERKVTTLTRSGELPVDNFGVPLAGSLIPWIDKQLDNGQSRQEWKGQAETNKILNTSSVIPVDGLCVRVGALRCHSQAFTIKLKKDVSIPTVEELLAAHNPWAKVVPNDREITMRELTPAAVTGTLTTPVGRLRKLNMGPEFLSAFTVGDQLLWGAAEPLRRMLRQLA
Km [1]: 250 µM

B2: E. coli aspartate semialdehyde dehydrogenase Asd variant E241I, SEQ ID NO: 62 (Escherichia coli K-12; E241I) (protein)
chain: B1 chain with N136T, Q241I
Km [2]: 230 µM
Vmax [2]: 0.10 µmol/mg/min

B3: E. coli aspartate semialdehyde dehydrogenase Asd variant E241M, SEQ ID NO: 64 (Escherichia coli K-12; E241M) (protein)
chain: B1 chain with N136T, Q241M
Km [3]: 430 µM
Vmax [3]: 0.15 µmol/mg/min

B4: E. coli aspartate semialdehyde dehydrogenase Asd variant E241Q, SEQ ID NO: 66 (Escherichia coli K-12; E241Q) (protein)
chain: B1 chain with N136T
Km [4]: 520 µM
Vmax [4]: 0.39 µmol/mg/min

B5: E. coli aspartate semialdehyde dehydrogenase Asd variant E241H, SEQ ID NO: 60 (Escherichia coli K-12; E241H) (protein)
chain: B1 chain with N136T, Q241H
Km [5]: 800 µM
Vmax [5]: 0.10 µmol/mg/min

B6: E. coli aspartate semialdehyde dehydrogenase Asd variant E241C, SEQ ID NO: 56 (Escherichia coli K-12; E241C) (protein)
chain: B1 chain with N136T, Q241C
Km [6]: 500 µM
Vmax [6]: 0.18 µmol/mg/min

B7: E. coli aspartate semialdehyde dehydrogenase Asd variant E241A, SEQ ID NO: 54 (Escherichia coli K-12; E241A) (protein)
chain: B1 chain with N136T, Q241A
Km [7]: 378 µM
Vmax [7]: 0.09 µmol/mg/min

B8: E. coli aspartate semialdehyde dehydrogenase Asd variant E241G, SEQ ID NO: 58 (Escherichia coli K-12; E241G) (protein)
chain: B1 chain with N136T, Q241G
Km [8]: 180 µM
Vmax [8]: 0.09 µmol/mg/min

B9: E. coli aspartate kinase III LysC, wild type, His-tagged, SEQ ID NO: 4 (Escherichia coli K-12) (protein)
chain: MSEIVVSKFGGTSVADFDAMNRSADIVLSDANVRLVVLSASAGITNLLVALAEGLEPGERFEKLDAIRNIQFAILERLRYPNVIREEIERLLENITVLAEAAALATSPALTDELVSHGELMSTLLFVEILRERDVQAQWFDVRKVMRTNDRFGRAEPDIAALAELAALQLLPRLNEGLVITQGFIGSENKGRTTTLGRGGSDYTAALLAEALHASRVDIWTDVPGIYTTDPRVVSAAKRIDEIAFAEAAEMATFGAKVLHPATLLPAVRSDIPVFVGSSKDPRAGGTLVCNKTENPPLFRALALRRNQTLLTLHSLNMLHSRGFLAEVFGILARHNISVDLITTSEVSVALTLDTTGSTSTGDTLLTQSLLMELSALCRVEVEEGLALVALIGNDLSKACGVGKEVFGVLEPFNIRMICYGASSHNLCFLVPGEDAEQVVQKLHSNLFE
Km [9]: 600 µM

B10: E. coli aspartate kinase LysC variant E119G, SEQ ID NO: 14 (Escherichia coli K-12; E119G) (protein)
chain: B9 chain with E119G
Km [10]: 16000 µM
Vmax [10]: 0.49 µmol/mg/min

B11: E. coli aspartate kinase LysC variant E119T, SEQ ID NO: 24 (Escherichia coli K-12; E119T) (protein)
chain: B9 chain with E119T
Km [11]: 26800 µM
Vmax [11]: 0.33 µmol/mg/min

B12: E. coli aspartate kinase LysC variant E119V, SEQ ID NO: 26 (Escherichia coli K-12; E119V) (protein)
chain: B9 chain with E119V
Km [12]: 39700 µM
Vmax [12]: 0.29 µmol/mg/min

B13: E. coli aspartate kinase LysC variant E119N, SEQ ID NO: 16 (Escherichia coli K-12; E119N) (protein)
chain: B9 chain with E119N
Km [13]: 27100 µM
Vmax [13]: 0.13 µmol/mg/min

B14: E. coli aspartate kinase LysC variant E119P, SEQ ID NO: 18 (Escherichia coli K-12; E119P) (protein)
chain: B9 chain with E119P
Km [14]: 19000 µM
Vmax [14]: 0.71 µmol/mg/min

B15: E. coli aspartate kinase LysC variant E119Q, SEQ ID NO: 20 (Escherichia coli K-12; E119Q) (protein)
chain: B9 chain with E119Q
Km [15]: 39900 µM
Vmax [15]: 0.01 µmol/mg/min

B16: E. coli aspartate kinase LysC variant E119S, SEQ ID NO: 22 (Escherichia coli K-12; E119S) (protein)
chain: B9 chain with E119S
Km [16]: 15700 µM
Vmax [16]: 0.83 µmol/mg/min

B17: E. coli aspartate kinase LysC variant E119C, SEQ ID NO: 12 (Escherichia coli K-12; E119C) (protein)
chain: B9 chain with E119C
Km [17]: 19700 µM
Vmax [17]: 0.97 µmol/mg/min

Reference: patent US10358663B2, “Method of production of 2,4-dihydroxybutyric acid” (ADISSEO FRANCE S.A.S., priority 2010, dated 2019)
